Experimental data published in article PMC7710356, “RNF41 regulates the damage recognition receptor Clec9A and antigen cross-presentation in mouse dendritic cells” (eLife, 2020).

Key:
[1] = biological target: T1, mutant CLEC9A ectodomain (hCLEC9A W131A, W227A) (human, UniProt Q6UXN8 57-241, W131A | W227A); assay: ELISA; plates coated with GST-RNF41-C, GST-RNF41-RBC or GST (10 μg/ml); FLAG-tagged Clec ectodomains 10 to 0.04 μg/ml in solution; detected with anti-FLAG HRP; settings: both partners purified
T1 construct: human CLEC9A extracellular region (ecto) with W131A and W227A in the CTLD; Same construct as m2 with the two tryptophan mutations; also called hCLEC9A-ecto (W->A); hCLEC9A-ecto W->A
T1 sequence (Q6UXN8 57-241 W131A/W227A): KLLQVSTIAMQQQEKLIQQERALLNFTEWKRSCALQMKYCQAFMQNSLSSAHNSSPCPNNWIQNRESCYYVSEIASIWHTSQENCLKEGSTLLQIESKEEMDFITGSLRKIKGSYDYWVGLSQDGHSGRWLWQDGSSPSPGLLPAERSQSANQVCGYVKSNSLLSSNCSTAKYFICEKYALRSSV

[2] = biological target: T2, FLAG-tagged recombinant human CLEC9A ecto-domains (hCLEC9A-ecto) (human, UniProt Q6UXN8 57-241); assay: as above; settings: both partners purified
T2 construct: human CLEC9A, full extracellular region (ecto) including the CTLD and stalk; also called human wild-type CLEC9A
T2 sequence (Q6UXN8 57-241): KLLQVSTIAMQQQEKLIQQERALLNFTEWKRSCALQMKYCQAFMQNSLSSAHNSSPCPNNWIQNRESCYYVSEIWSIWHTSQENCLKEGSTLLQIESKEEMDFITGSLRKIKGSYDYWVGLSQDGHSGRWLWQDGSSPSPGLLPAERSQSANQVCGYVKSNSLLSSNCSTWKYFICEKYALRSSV

B1: GST-tagged RNF41 C-terminal domain (RNF41-C) (domain or fragment, human, UniProt Q9H4P4 169-317, looked up)
chain: DIQLLKAYMRAIRSVNPNLQNLEETIEYNEILEWVNSLQPARVTRWGGMISTPDAVLQAVIKRSLVESGCPASIVNELIENAHERSWPQGLATLETRQMNRRYYENYVAKRIPGKQAVVVMACENQHMGDDMVQEPGLVMIFAHGVEEI
notes: RNF41 C-terminal domain; region 169-DIQL…VEEI-317; Cloned into a modified pGEX-2T vector; also called GST-RNF41-C; source: E. coli BL21 DE3, purified (Glutathione-Sepharose, SEC)
B1: binds [1]; binds [2].
